Assay results reported in patent EP4703474A1, “ANTI-LRRC15 ANTIBODY” (priority 2023, dated 2024).
Where a chain is given by its changes, count along the chain named.

B1: H02L01-PBD (conjugate)
heavy: EVQLVESGGGLVQPGGSLRLSCAASGFTFRDYYMAWVRQAPGKGLEWVSSIGFDESRTYYADSVKGRFTISRDDSKNTLYLQMNSLRAEDTAVYYCARHGVSYYSGDNWFAYWGQGTLVTVSSASTKGPSVFPLAPSSKSTSGGTAALGCLVKDYFPEPVTVSWNSGALTSGVHTFPAVLQSSGLYSLSSVVTVPSSSLGTQTYICNVNHKPSNTKVDKKVEPKSCDKTHTCPPCPAPEAAGGPSVFLFPPKPKDTLMISRTPEVTCVVVDVSHEDPEVKFNWYVDGVEVHNAKTKPREEQYNSTYRVVSVLTVLHQDWLNGKEYKCKVSNKALAAPIEKTISKAKGQPREPQVYTLPPSREEMTKNQVSLTCLVKGFYPSDIAVEWESNGQPENNYKTTPPVLDSDGSFFLYSKLTVDKSRWQQGNVFSCSVMHEALHNHYTQKSLSLSPGK
light: DIQMTQSPSSLSASVGDRVTITCKSSQGLLYSGDQKNYLAWYQQKPGKAPKLLIYWASTRQSGVPSRFSGSGSGTDFTLTISSLQPEDFATYYCQQYYDPPYTFGQGTKVEIKRTVAAPSVFIFPPSDEQLKSGTASVVCLLNNFYPREAKVQWKVDNALQSGNSQESVTEQDSKDSTYSLSSTLTLSKADYEKHKVYACEVTHQGLSSPVTKSFNRGEC
B2: H02L01-V1-PBD (conjugate)
heavy: B1 heavy with Y103K
light: B1 light

How the values were obtained:
[1] = test system: Mouse colorectal carcinoma cell line CMT93; experiment: In vivo antitumor effect, CMT93 subcutaneous transplant model; conditions: 0.4 mg/kg, tail vein, on Day 7, male B6J mice
Method: (§1) The antitumor effects of the antibody-drug conjugates were evaluated by using animal models in which cells of a human tumor cell line had been transplanted into immunodeficient mice, or cells of a mouse tumor cell line had been transplanted into immunocompetent mice. 4 to 6 Week-old SCID mice (CB17/Icr-Prkdc[scid]/CrlCrlj, Jackson Laboratory Japan, Inc.), NSG mice (NOD.Cg-Prkdcscid Il2rgtm1Wjl/SzJ, Jackson Laboratory Japan, Inc.), or B6J mice (C57BL/6J, Jackson Laboratory Japan, Inc.) were habituated for 3 days or more under SPF conditions before experimental use. The mice were fed with sterilized solid feed and given sterilized tap water. The major and minor diameters of the transplanted tumors were measured twice a week with an electronic digital caliper (Mitutoyo Corporation), and the estimated tumor volume was calculated using the following formula. Estimated tumor volume (mm^3) = 1/2 × major diameter (mm) × [minor diameter (mm)]^2 All antibody-drug conjugates were diluted with ABS and administered into the tail vein at doses shown in each Example. In addition, ABS (vehicle) or control hIgG-PBD prepared in Reference Example 4 was administered as the control group, in a similar manner. 5 to 6 Mice were used per group in the experiment. To analyze the LRRC15 expression in mouse tumor models, immunohistochemical staining of LRRC15 was performed. […]

[2] = test system: Head and neck carcinoma cell line Detroit 562; experiment: In vivo antitumor effect, Detroit 562 subcutaneous transplant model; conditions: 0.4 mg/kg, tail vein, on Day 10, female SCID mice
Method: as §1

Molecule | antitumor effect (estimated tumor volume) [1] | antitumor effect (estimated tumor volume) [2]
B1 | antitumor activity higher than that of the vehicle and the control hIgG-PBD | 
B2 | antitumor activity higher than that of the vehicle and the control hIgG-PBD | antitumor activity higher than that of the vehicle and control hIgG-PBD
